The target of one assay is T1, human Myl3-His (human, UniProt P08590 2-195, limits assumed).
T1 construct: Made in E. coli; the GST tag was cleaved with PreScission Protease
Briefly: ELISA, human Myl3-His coated, anti-human IgG-HRP. The method, then: (§1) The binding ability against human Myl9 was evaluated following the steps below by ELISA. Human Myl3-His and human Myl9-His were coated onto the wells of a 96-well plate (Nunc). After an overnight incubation at 4° C., the wells were blocked at room temperature for one hour with 1× Block Ace (DS Pharma Biomedical Co., Ltd.). After washing three times with 0.02% Tween 20/PBS, seven serial dilutions by six folds of the chimeric and humanized antibodies were made from a concentration of 10 μg/mL and added to the wells. After incubation at room temperature for one hour and washing three times, horseradish peroxidase-labeled anti-human IgG antibody (Jackson ImmunoResearch Laboratories) was added, and this was incubated at room temperature for one hour. After washing 5 times, TMBZ (3,3′,5,5′-tetramethylbenzidine) solution was added to the wells, and this was incubated for 5-20 minutes at room temperature. An equal amount of reaction quenching solution (2N H₂SO₄) was added to the wells, and absorbance at 450 nm was read with a microplate reader (PerkinElmer).

The target of a further assay is T2, human Myl12b-His (human, UniProt O14950 1-172).
T2 construct: Made in E. coli; GST tag cleaved with PreScission Protease; DTT-treated monomer
T2 sequence: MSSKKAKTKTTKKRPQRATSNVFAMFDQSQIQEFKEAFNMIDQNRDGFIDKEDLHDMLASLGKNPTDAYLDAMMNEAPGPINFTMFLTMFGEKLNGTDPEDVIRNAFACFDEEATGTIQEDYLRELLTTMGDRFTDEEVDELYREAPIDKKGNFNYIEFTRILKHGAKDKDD
As to the kind of experiment: ELISA, human Myl12b-His coated, anti-human IgG-HRP. The method, then: (§2) The binding ability of chimeric and humanized antibodies prepared from Antibody A against human Myl12a and Myl12b was evaluated following the steps below by ELISA. Human Myl3-His, human Myl9-His, human Myl12a-His and human Myl12b-His were coated onto the wells of a 96-well plate (Nunc), respectively. After an overnight incubation at 4° C., the wells were blocked at room temperature for one hour with 1× Block Ace (DS Pharma Biomedical Co., Ltd.). After washing three times with 0.02% Tween 20/PBS, the chimeric and humanized antibodies were diluted at the concentration of 0.01, 0.1 and 1 μg/mL, respectively and added to the wells. After incubation at room temperature for one hour and washing three times, horseradish peroxidase-labeled anti-human IgG antibody (Jackson ImmunoResearch Laboratories) was added, and this was incubated at room temperature for one hour. After washing 5 times, TMBZ (3,3′,5,5′-tetramethylbenzidine) solution was added to the wells, and this was incubated for 5-20 minutes at room temperature. An equal amount of reaction quenching solution (2N H₂SO₄) was added to the wells, and absorbance at 450 nm was read with a microplate reader (Thermo Scientific).

The target in the next assay is T3, human Myl9-His (human, UniProt P24844 2-172, limits assumed).
T3 construct: Made in E. coli; the GST tag was cleaved with PreScission Protease
T3 sequence: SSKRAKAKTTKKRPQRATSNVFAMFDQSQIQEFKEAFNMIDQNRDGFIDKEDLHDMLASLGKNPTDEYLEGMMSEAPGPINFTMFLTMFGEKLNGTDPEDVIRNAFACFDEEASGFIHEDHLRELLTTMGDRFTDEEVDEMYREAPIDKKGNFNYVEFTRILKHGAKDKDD
Briefly: ELISA, human Myl9-His coated, anti-human IgG-HRP. The method, then: as §1

In another assay the target is T4, human Myl12a-His (human, UniProt P19105 1-171).
T4 construct: Made in E. coli; GST tag cleaved with PreScission Protease; DTT-treated monomer
T4 sequence: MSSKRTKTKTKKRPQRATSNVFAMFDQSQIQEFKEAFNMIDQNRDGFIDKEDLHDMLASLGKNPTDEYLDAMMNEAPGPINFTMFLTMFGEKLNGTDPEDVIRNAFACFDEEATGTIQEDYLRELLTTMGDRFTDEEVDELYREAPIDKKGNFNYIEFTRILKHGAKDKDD
As to the kind of experiment: ELISA, human Myl12a-His coated, anti-human IgG-HRP. As for the experimental part: as §2

T1 sequence (P08590 2-195 limits assumed): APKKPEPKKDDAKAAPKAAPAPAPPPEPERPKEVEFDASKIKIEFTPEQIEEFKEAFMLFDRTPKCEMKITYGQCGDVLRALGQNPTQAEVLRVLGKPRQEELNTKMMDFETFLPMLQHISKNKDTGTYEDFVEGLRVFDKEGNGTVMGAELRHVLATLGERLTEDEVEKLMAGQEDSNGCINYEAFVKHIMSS

B1: Humanized antibody No. 117 (antibody, human IgG2, kappa, V domains shown)
VH: QVQLVQSGAEVKKPGASVKVSCKASGYTFTDYEMHWVRQAPGQGLEWMGAIDPETGGTAYNQKFKGRATMTADTSTSTAYMELSSLRSEDTAVYYCADYDYDGFAYWGQGTLVTVSS
VL: DIVMTQSPLSLSITPGEQASISCRSSQSLVHSNGNTYLHWYLQKPGQSPQLLISKVSNRFSGVPDRFSGSGSGTDFTLKISRVEAEDVGVYFCSQNTHVPPLTFGGGTKVEIKR
notes: human IgG2 (V234A, G237A, C-terminal Lys deleted) / kappa; Expi293F, Protein A purified; also called HK2-6/L1-5
Consider B1, for which the binding result in the assay with human Myl3-His is reported as “no binding (tested: 10 µg/mL)”; with human Myl12b-His it was “binds”; with human Myl9-His, “binds”; with human Myl12a-His, “binds”.

B2: Humanized antibody No. 128 (antibody, human IgG2, kappa, V domains shown)
VH: QVQLVQSGAEVKKPGASVKVSCKASGYTFTDYEMHWVRQAPGQGLEWMGAIDPETGGTAYNQKFKGRATMTADTSTSTAYMELSSLRSEDTAVYYCADYDYDGFAYWGQGTLVTVSS
VL: DIVMTQTPLSSPVTLGQPASISCRSSQSLVHSNGNTYLHWYQQRPGQPPRLLISKVSNRFSGVPDRFSGSGAGTDFTLKISRVEAEDVGVYFCSQNTHVPPLTFGGGTKVEIKR
notes: human IgG2 (V234A, G237A, C-terminal Lys deleted) / kappa; Expi293F, Protein A purified; also called HK2-6/L4-2
As to B2, the binding result is “no binding (tested: 10 µg/mL)” in the assay with human Myl3-His, “binds” with human Myl12b-His, “binds” with human Myl9-His and “binds” in the assay with human Myl12a-His.

B3: Humanized antibody No. 129 (antibody, human IgG2, kappa, V domains shown)
VH: QVQLVQSGAEVKKPGASVKVSCKASGYTFTDYEMHWVRQAPGQGLEWMGAIDPETGGTAYNQKFKGRVTMTADKSTSTAYMELSSLRSEDTAVYYCADYDYDGFAYWGQGTLVTVSS
VL: DIVMTQTPLSSPVTLGQPASISCRSSQSLVHSNGNTYLHWYQQRPGQPPRLLISKVSNRFSGVPDRFSGSGAGTDFTLKISRVEAEDVGVYFCSQNTHVPPLTFGGGTKVEIKR
notes: human IgG2 (V234A, G237A, C-terminal Lys deleted) / kappa; Expi293F, Protein A purified; also called HK2-9/L4-2
As to B3, the binding result with human Myl3-His is given as “no binding (tested: 10 µg/mL)”; with human Myl12b-His it was “binds”; with human Myl9-His, “binds”; with human Myl12a-His, “binds”.

B4: Humanized antibody No. 122 (antibody, human IgG2, kappa, V domains shown)
VH: QVQLVQSGAEVKKPGSSVKVSCKASGYTFTDYEMHWVRQAPGQGLEWMGAIDPETGGTAYAQKFQGRATITADKSTSTAYMELRSLRSEDTAVYYCADYDYDGFAYWGQGTLVTVSS
VL: DIVMTQTPLSSPVTLGQPASISCRSSQSLVHSNGNTYLHWYQQRPGQPPRLLISKVSNRFSGVPDRFSGSGAGTDFTLKISRVEAEDVGVYFCSQNTHVPPLTFGGGTKVEIKR
notes: human IgG2 (V234A, G237A, C-terminal Lys deleted) / kappa; Expi293F, Protein A purified; also called HA1-4/L4-2
For B4, the binding result was “no binding (tested: 10 µg/mL)” with human Myl3-His, “binds” with human Myl12b-His, “binds” in the assay with human Myl9-His and “binds” with human Myl12a-His.

B5: Humanized antibody No. 125 (antibody, human IgG2, kappa, V domains shown)
VH: QVQLVQSGAEVKKPGSSVKVSCKASGGTFSDYEMHWVRQAPGQGLEWMGAIDPETGGTAYNQKFKGRATITADKSTSTAYMELRSLRSEDTAVYYCADYDYDGFAYWGQGTLVTVSS
VL: DIVMTQTPLSSPVTLGQPASISCRSSQSLVHSNGNTYLHWYQQRPGQPPRLLISKVSNRFSGVPDRFSGSGAGTDFTLKISRVEAEDVGVYFCSQNTHVPPLTFGGGTKVEIKR
notes: human IgG2 (V234A, G237A, C-terminal Lys deleted) / kappa; Expi293F, Protein A purified; also called HK1-4/L4-2
In the case of B5, the binding result is given as “no binding (tested: 10 µg/mL)” in the assay with human Myl3-His, “binds” in the assay with human Myl12b-His, “binds” in the assay with human Myl9-His and “binds” in the assay with human Myl12a-His.

B6: Humanized antibody No. 121 (antibody, human IgG2, kappa, V domains shown)
VH: QVQLVQSGAEVKKPGSSVKVSCKASGYTFTDYEMHWVRQAPGQGLEWMGAIDPETGGTAYAQKFQGRVTITADKSTSTAYMELRSLRSEDTAVYYCADYDYDGFAYWGQGTLVTVSS
VL: DIVMTQTPLSSPVTLGQPASISCRSSQSLVHSNGNTYLHWYQQRPGQPPRLLISKVSNRFSGVPDRFSGSGAGTDFTLKISRVEAEDVGVYFCSQNTHVPPLTFGGGTKVEIKR
notes: human IgG2 (V234A, G237A, C-terminal Lys deleted) / kappa; Expi293F, Protein A purified; also called HA1-6/L4-2
For B6, the binding result with human Myl3-His is “no binding (tested: 10 µg/mL)”; with human Myl12b-His, “binds”; with human Myl9-His it was “binds”; with human Myl12a-His, “binds”.

B7: Humanized antibody No. 126 (antibody, human IgG2, kappa, V domains shown)
VH: QVQLVQSGAEVKKPGSSVKVSCKASGYTFSDYEMHWVRQAPGQGLEWIGAIDPETGGTAYNQKFKGRATITADKSTSTAYMELRSLRSEDTAVYYCTDYDYDGFAYWGQGTLVTVSS
VL: DIVMTQTPLSSPVTLGQPASISCRSSQSLVHSNGNTYLHWYQQRPGQPPRLLISKVSNRFSGVPDRFSGSGAGTDFTLKISRVEAEDVGVYFCSQNTHVPPLTFGGGTKVEIKR
notes: human IgG2 (V234A, G237A, C-terminal Lys deleted) / kappa; Expi293F, Protein A purified; also called HK1-A/L4-2
In the case of B7, the binding result with human Myl3-His was “no binding (tested: 10 µg/mL)”; with human Myl12b-His it was “binds”; with human Myl9-His, “binds”; with human Myl12a-His, “binds”.

B8: Humanized antibody No. 127 (antibody, human IgG2, kappa, V domains shown)
VH: QVQLVQSGAEVKKPGASVKVSCKASGYTFTDYEMHWVRQAPGQGLEWMGAIDPETGGTAYNQKFKGRVTMTADTSTSTAYMELSSLRSEDTAVYYCADYDYDGFAYWGQGTLVTVSS
VL: DIVMTQTPLSSPVTLGQPASISCRSSQSLVHSNGNTYLHWYQQRPGQPPRLLISKVSNRFSGVPDRFSGSGAGTDFTLKISRVEAEDVGVYFCSQNTHVPPLTFGGGTKVEIKR
notes: human IgG2 (V234A, G237A, C-terminal Lys deleted) / kappa; Expi293F, Protein A purified; also called HK2-5/L4-2
Consider B8, for which the binding result with human Myl3-His is on record as “no binding (tested: 10 µg/mL)”; with human Myl12b-His, “binds”; with human Myl9-His, “binds”; in the assay with human Myl12a-His, “binds”.

B9: Humanized antibody No. 123 (antibody, human IgG2, kappa, V domains shown)
VH: QVQLVQSGAEVKKPGSSVKVSCKASGGTFSDYEMHWVRQAPGQGLEWMGAIDPETGGTAYNQKFKGRVTITADKSTSTAYMELSSLRSEDTAVYYCADYDYDGFAYWGQGTLVTVSS
VL: DIVMTQTPLSSPVTLGQPASISCRSSQSLVHSNGNTYLHWYQQRPGQPPRLLISKVSNRFSGVPDRFSGSGAGTDFTLKISRVEAEDVGVYFCSQNTHVPPLTFGGGTKVEIKR
notes: human IgG2 (V234A, G237A, C-terminal Lys deleted) / kappa; Expi293F, Protein A purified; also called HK1-5/L4-2
As to B9, the binding result with human Myl3-His is recorded as “no binding (tested: 10 µg/mL)”; with human Myl12b-His it was “binds”; in the assay with human Myl9-His it was “binds”; with human Myl12a-His it was “binds”.

B10: Humanized antibody No. 124 (antibody, human IgG2, kappa, V domains shown)
VH: QVQLVQSGAEVKKPGSSVKVSCKASGGTFSDYEMHWVRQAPGQGLEWMGAIDPETGGTAYNQKFKGRVTITADKSTSTAYMELRSLRSEDTAVYYCADYDYDGFAYWGQGTLVTVSS
VL: DIVMTQTPLSSPVTLGQPASISCRSSQSLVHSNGNTYLHWYQQRPGQPPRLLISKVSNRFSGVPDRFSGSGAGTDFTLKISRVEAEDVGVYFCSQNTHVPPLTFGGGTKVEIKR
notes: human IgG2 (V234A, G237A, C-terminal Lys deleted) / kappa; Expi293F, Protein A purified; also called HK1-6/L4-2
In the case of B10, the binding result in the assay with human Myl3-His was “no binding (tested: 10 µg/mL)”; with human Myl12b-His, “binds”; with human Myl9-His it was “binds”; with human Myl12a-His, “binds”.

B11: Humanized antibody No. 118 (antibody, human IgG2, kappa, V domains shown)
VH: QVQLVQSGAEVKKPGASVKVSCKASGYTFTDYEMHWVRQAPGQGLEWMGAIDPETGGTAYNQKFKGRVTMTADKSTSTAYMELSSLRSEDTAVYYCADYDYDGFAYWGQGTLVTVSS
VL: DIVMTQSPLSLSITPGEQASISCRSSQSLVHSNGNTYLHWYLQKPGQSPQLLISKVSNRFSGVPDRFSGSGSGTDFTLKISRVEAEDVGVYFCSQNTHVPPLTFGGGTKVEIKR
notes: human IgG2 (V234A, G237A, C-terminal Lys deleted) / kappa; Expi293F, Protein A purified; also called HK2-9/L1-5
Take B11: the binding result is recorded as “no binding (tested: 10 µg/mL)” with human Myl3-His, “binds” with human Myl12b-His, “binds” with human Myl9-His and “binds” with human Myl12a-His.

The record behind these values is patent publication US20190002588A1 (NATIONAL UNIVERSITY CORPORATION CHIBA UNIVERSITY, published 2019).
